Reference: paper PMC9482650, “Quantitative fragmentomics allow affinity mapping of interactomes” (Nature Communications, 2022)

T1: APBA2_1, Q99767
T1 sequence (Q99767 563-664, limits assumed, looked up): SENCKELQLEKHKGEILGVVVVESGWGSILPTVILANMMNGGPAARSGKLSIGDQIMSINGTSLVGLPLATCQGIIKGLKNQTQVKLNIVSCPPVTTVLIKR

T2: APBA3_1, O96018
T2 sequence (O96018 389-490, limits assumed, looked up): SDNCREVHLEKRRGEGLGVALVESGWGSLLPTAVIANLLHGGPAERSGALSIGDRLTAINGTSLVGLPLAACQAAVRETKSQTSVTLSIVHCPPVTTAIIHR

T3: ARHGEF11, O15085
T3 sequence (O15085 42-136, limits assumed, looked up): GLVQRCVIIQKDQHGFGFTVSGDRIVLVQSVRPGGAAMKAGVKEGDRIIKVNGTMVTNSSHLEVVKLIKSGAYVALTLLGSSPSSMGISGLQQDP

T4: CARD11, Q9BXL7
T4 sequence (Q9BXL7 662-765, limits assumed, looked up): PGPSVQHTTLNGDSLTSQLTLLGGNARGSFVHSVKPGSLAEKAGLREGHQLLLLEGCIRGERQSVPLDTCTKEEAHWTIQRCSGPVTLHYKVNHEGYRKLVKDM

T5: DVL3, Q92997
T5 sequence (Q92997 244-331, limits assumed, looked up): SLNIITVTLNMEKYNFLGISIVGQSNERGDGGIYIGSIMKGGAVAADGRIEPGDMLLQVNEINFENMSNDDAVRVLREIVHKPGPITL

T6: FRMPD1, Q5SYB0
T6 sequence (Q5SYB0 52-145, limits assumed, looked up): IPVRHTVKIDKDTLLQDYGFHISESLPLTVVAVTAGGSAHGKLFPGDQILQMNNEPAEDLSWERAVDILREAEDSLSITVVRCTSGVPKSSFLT

T7: GRIP1_2, Q9Y3R0
T7 sequence (Q9Y3R0 145-248, limits assumed, looked up): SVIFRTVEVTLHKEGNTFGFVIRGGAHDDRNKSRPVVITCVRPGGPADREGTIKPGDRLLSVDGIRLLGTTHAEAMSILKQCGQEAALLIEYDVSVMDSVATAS

T8: MPP6, Q9NZW5
T8 sequence (Q9NZW5 125-219, limits assumed, looked up): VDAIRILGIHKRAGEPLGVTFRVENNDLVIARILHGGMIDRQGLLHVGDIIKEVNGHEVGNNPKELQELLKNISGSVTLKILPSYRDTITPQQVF

T9: NHERF3_1, Q5T2W1
T9 sequence (Q5T2W1 4-100, limits assumed, looked up): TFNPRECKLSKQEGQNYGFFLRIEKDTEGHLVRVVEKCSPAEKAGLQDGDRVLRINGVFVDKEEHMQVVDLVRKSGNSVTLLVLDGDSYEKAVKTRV

T10: PCLO, Q9Y6V0
T10 sequence (Q9Y6V0 4491-4600, limits assumed, looked up): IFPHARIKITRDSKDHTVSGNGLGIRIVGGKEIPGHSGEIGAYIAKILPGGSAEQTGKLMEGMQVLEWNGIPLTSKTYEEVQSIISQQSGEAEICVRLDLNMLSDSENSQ

T11: SNTA1, Q13424
T11 sequence (Q13424 82-180, limits assumed, looked up): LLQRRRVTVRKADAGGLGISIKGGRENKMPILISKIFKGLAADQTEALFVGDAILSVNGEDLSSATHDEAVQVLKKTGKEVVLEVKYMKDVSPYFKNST

T12: TIAM2, Q8IVF5
T12 sequence (Q8IVF5 885-986, limits assumed, looked up): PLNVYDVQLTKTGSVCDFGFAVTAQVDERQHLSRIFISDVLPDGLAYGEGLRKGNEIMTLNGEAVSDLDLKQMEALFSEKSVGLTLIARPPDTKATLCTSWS

T13: TJP3_3, O95049
T13 sequence (O95049 375-456, limits assumed, looked up): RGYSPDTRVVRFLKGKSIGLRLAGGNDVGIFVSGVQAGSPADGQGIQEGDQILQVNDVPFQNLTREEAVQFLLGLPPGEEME


Legend:
Assay in all cases: holdup assay
Parameters in all cases: key: below the threshold = too weak to quantify, mostly under pKd 3.1 to 4
Conditions in all cases: plain residues with an end cap or a label only (N-terminal biotin on a linker: ado-ado)
[1] = molecular target: T1, APBA2_1, Q99767
[2] = molecular target: T2, APBA3_1, O96018
[3] = molecular target: T3, ARHGEF11, O15085
[4] = molecular target: ARHGEF12, Q9NZN5-2
ARHGEF12, Q9NZN5-2, sequence (Q9NZN5 other isoform, or with tags, fused parts or gaps): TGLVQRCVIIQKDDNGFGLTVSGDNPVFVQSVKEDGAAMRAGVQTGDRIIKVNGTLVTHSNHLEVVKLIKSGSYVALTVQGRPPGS

[5] = molecular target: T4, CARD11, Q9BXL7
[6] = molecular target: CASK, O14936
CASK, O14936, sequence (O14936 487-570): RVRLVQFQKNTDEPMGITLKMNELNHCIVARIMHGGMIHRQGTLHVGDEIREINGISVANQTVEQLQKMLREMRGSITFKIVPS

[7] = molecular target: DLG5_1, Q8TDM6
DLG5_1, Q8TDM6, sequence (Q8TDM6 617-713): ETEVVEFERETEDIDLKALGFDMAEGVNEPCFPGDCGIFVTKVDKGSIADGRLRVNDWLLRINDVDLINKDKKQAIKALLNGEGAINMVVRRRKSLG

[8] = molecular target: T5, DVL3, Q92997
[9] = molecular target: T6, FRMPD1, Q5SYB0
[10] = molecular target: T7, GRIP1_2, Q9Y3R0
[11] = molecular target: GRIP2_3, Q9C0E4
GRIP2_3, Q9C0E4, sequence (Q9C0E4 238-339): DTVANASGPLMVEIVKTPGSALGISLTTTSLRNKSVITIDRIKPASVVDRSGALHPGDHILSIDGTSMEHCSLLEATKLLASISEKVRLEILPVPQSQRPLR

[12] = molecular target: GRIP2_6, Q9C0E4
GRIP2_6, Q9C0E4, sequence (Q9C0E4 648-740): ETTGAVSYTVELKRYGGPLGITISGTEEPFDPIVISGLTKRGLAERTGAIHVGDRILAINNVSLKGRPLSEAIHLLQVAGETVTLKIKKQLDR

[13] = molecular target: HTRA2, O43464
HTRA2, O43464, sequence (O43464 355-458): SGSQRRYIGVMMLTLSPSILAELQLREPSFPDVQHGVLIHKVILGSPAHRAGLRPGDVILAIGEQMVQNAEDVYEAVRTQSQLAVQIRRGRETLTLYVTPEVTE

[14] = molecular target: IL16_1, Q14005
IL16_1, Q14005, sequence (Q14005 210-306): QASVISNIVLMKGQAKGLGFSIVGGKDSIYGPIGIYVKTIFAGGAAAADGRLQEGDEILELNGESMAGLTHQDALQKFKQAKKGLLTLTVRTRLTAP

[15] = molecular target: Inadl_6, Q8NI35
Inadl_6, Q8NI35, sequence (Q8NI35 1058-1167): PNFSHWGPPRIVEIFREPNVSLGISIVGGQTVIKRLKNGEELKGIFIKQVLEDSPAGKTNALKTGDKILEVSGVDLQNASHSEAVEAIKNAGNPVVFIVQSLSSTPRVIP

[16] = molecular target: MAGI2_6, Q86UL8
MAGI2_6, Q86UL8, sequence (Q86UL8 1141-1229): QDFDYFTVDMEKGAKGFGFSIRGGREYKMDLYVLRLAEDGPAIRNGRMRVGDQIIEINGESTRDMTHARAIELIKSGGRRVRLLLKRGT

[17] = molecular target: T8, MPP6, Q9NZW5
[18] = molecular target: T9, NHERF3_1, Q5T2W1
[19] = molecular target: NHERF4_2, Q86UT5
NHERF4_2, Q86UT5, sequence (Q86UT5 220-308): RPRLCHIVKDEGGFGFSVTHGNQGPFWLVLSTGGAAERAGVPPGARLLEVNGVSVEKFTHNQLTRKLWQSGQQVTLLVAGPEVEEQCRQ

[20] = molecular target: NOS1, P29475
NOS1, P29475, sequence (P29475 9-101): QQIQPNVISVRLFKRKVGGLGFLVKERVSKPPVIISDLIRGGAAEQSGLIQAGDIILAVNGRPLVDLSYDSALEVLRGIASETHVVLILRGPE

[21] = molecular target: T10, PCLO, Q9Y6V0
[22] = molecular target: PICK1, Q9NRD5
PICK1, Q9NRD5, sequence (Q9NRD5 17-115): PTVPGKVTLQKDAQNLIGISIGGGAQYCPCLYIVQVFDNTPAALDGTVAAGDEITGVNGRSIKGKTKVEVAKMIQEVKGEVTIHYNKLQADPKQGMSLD

[23] = molecular target: T11, SNTA1, Q13424
[24] = molecular target: T12, TIAM2, Q8IVF5
[25] = molecular target: T13, TJP3_3, O95049

| Binder | pKd [1] | pKd [2] | pKd [3] | pKd [4] | pKd [5] | pKd [6] | pKd [7] | pKd [8] | pKd [9] | pKd [10] | pKd [11] | pKd [12] | pKd [13] | pKd [14] | pKd [15] | pKd [16] | pKd [17] | pKd [18] | pKd [19] | pKd [20] | other results |
| --- | --- | --- | --- | --- | --- | --- | --- | --- | --- | --- | --- | --- | --- | --- | --- | --- | --- | --- | --- | --- | --- |
| ASGLDKRDYV [CLDN9, O95484] | below the threshold | below the threshold | below the threshold | below the threshold | below the threshold | below the threshold | below the threshold | below the threshold | below the threshold | below the threshold | below the threshold | below the threshold | below the threshold | below the threshold | below the threshold | below the threshold | 3.69 | 4.46 | below the threshold | 4.22 | pKd [21]: below the threshold; pKd [22]: below the threshold; pKd [23]: below the threshold; pKd [24]: below the threshold; pKd [25]: 3.65 |
| PDSNPEESSV [SEMA4C, Q9C0C4] | below the threshold | below the threshold | 3.83 | 3.71 | below the threshold | below the threshold | below the threshold | below the threshold | below the threshold | below the threshold | below the threshold | below the threshold | below the threshold | 4.49 | below the threshold | 4.27 | below the threshold | 3.56 | below the threshold | 3.71 | pKd [21]: below the threshold; pKd [22]: below the threshold; pKd [23]: 4.25; pKd [24]: below the threshold; pKd [25]: below the threshold |
| NPETRDETQL [KCNT1, Q5JUK3] | below the threshold | below the threshold | 4.01 | 4.36 | below the threshold | below the threshold | below the threshold | below the threshold | below the threshold | below the threshold | below the threshold | below the threshold | below the threshold | below the threshold | 3.76 | 3.51 | 3.74 | 5.27 | below the threshold | 3.52 | pKd [21]: below the threshold; pKd [22]: below the threshold; pKd [23]: 4.04; pKd [24]: below the threshold; pKd [25]: below the threshold |
| SSGSTSSSRI [ADGRG1, Q9Y653] | below the threshold | below the threshold | 3.93 | 4.04 | below the threshold | below the threshold | below the threshold | below the threshold | below the threshold | below the threshold | below the threshold | below the threshold | below the threshold | below the threshold | below the threshold | below the threshold | below the threshold | 4.48 | below the threshold | below the threshold | pKd [21]: below the threshold; pKd [22]: below the threshold; pKd [23]: below the threshold; pKd [24]: 3.82; pKd [25]: below the threshold |
| PEEGKKQSQC [GAGE12J, A6NER3] | below the threshold | below the threshold | 3.62 | 3.84 | below the threshold | below the threshold | below the threshold | below the threshold | below the threshold | below the threshold | below the threshold | below the threshold | below the threshold | below the threshold | below the threshold | below the threshold | below the threshold | 3.68 | below the threshold | below the threshold | pKd [21]: below the threshold; pKd [22]: below the threshold; pKd [23]: below the threshold; pKd [24]: 3.87; pKd [25]: below the threshold |
